The target in assay [1] is both N-terminal and C-terminal FLAG tagged proteins. The assay can be described thus: Western blot, serial dilutions. (In general: A western blot detects proteins with antibodies after separation by electrophoresis.)
Assay [2] deals with FLAG-mSIGN-R1.ECD (mouse) (UniProt Q9CS74). The experiment in a line: Western blot, 293T lysate in two-fold dilutions.
For assay [3], the target named is FLAG-mLangerin.ECD (mouse) (UniProt Q9CS74). The experiment in a line: Western blot, purified protein in two-fold dilutions, 1 µg/ml antibody.

The text below walks through data of patent US20090098608A1.

Turning to rat anti-FLAG mAb L5 (antibody), the times better detection than mAb M2 in assay [1] was 2 to 8 times. The substance also showed a fold fewer cells detectable than mAb M2 in assay [2] of 8 fold. In addition, in assay [3], the fold lower detectable amount than mAb M2 was determined as 4 fold and the lowest amount of purified protein detected by Western blot is 25 ng.

Substance “mouse anti-FLAG mAb M2 (ANTI-FLAG M2, Sigma-Aldrich) (antibody)” showed a lowest amount of purified protein detected by Western blot in assay [3] of 100 ng.
